From patent US20260042834A1, “ANTI-CORTICOTROPIN-RELEASING HORMONE ANTIBODIES AND POLYCYSTIC OVARY SYNDROME” (HBM ALPHA THERAPEUTICS, INC., priority 2022, published 2026)
Changes are numbered by the printed parent chain. Read-outs that look alike come from different tables or passages of the source.

T1: human UCN1 (Homo sapiens, UniProt P55089)
T1 sequence (P55089 83-122 limits assumed): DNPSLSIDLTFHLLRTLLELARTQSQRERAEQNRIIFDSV

B1: PR302334-24: humanized variant of Series 9 mAb PR302334; VH SEQ ID NO: 275, VL SEQ ID NO: 328 (antibody, V domains shown)
VH: EVQLVESGGGLVKPGGSLRLSCAASGFTFSTYAMSWVRQAPGKGLEWVASIRSGGTTYYPDSVKGRFTISRDNAKNSLYLQMNSLRAEDTAVYYCTRGIDWGQGTTVTVSS
VL: DIVMTQSPDSLAVSLGERATINCKASQSVNNDVAWYQQKPGQPPRLLIYYASNRYTGVPDRFSGSGSGTDFTLTISSLQAEDLAVYFCQQDYSSWTFGGGTKVEIK
modifications: PR302334-16 VH, PR302334-24 VH, PR302334-25 VH; PR302334-10 VL, PR302334-24 VL, PR302334-26 VL, PR302334-4 VL
B2: PR302334-26: humanized variant of Series 9 mAb PR302334; VH SEQ ID NO: 277, VL SEQ ID NO: 328 (antibody, V domains shown)
VH: B1 VH with K13Q, A74S
VL: B1 VL
modifications: PR302334-18 VH, PR302334-26 VH, PR302334-27 VH; PR302334-10 VL, PR302334-24 VL, PR302334-26 VL, PR302334-4 VL

Tests used:
[1] = tested on: restraint-induced ACTH and corticosterone; test: Wildtype mice restraint-stress model (ACTH and corticosterone); assay type: in vivo, mouse; details: mAb 5 mg/kg
[2] = biological target: T2, N-terminal region plus central region, central region only, central region plus C-terminal region of CRH (Homo sapiens, UniProt P06850); test: ELISA determining the binding region of CRH; details: dash = no binding
T2 construct: N-terminal region plus the central region (CT biotin), the central region only (NT biotin or CT biotin)
Method: Streptavidin (Thermo, Cat: 21125) was diluted in PBS to a concentration of 2 μg/ml. 100 μl of diluted streptavidin was added per well to ELISA microplates, and the plates were incubated overnight at 4° C. Plates were blocked with ELISA blocking solution (containing 2% w/v BSA, 0.05% (v/v) Tween-20, pH 7.4 PBS buffer) at 37° C. for 1 hour, and then incubated with 1 μg/mL N-terminal region plus the central region (CT biotin), the central region only (NT biotin or CT biotin), or the central region plus C-terminal region (NT biotin) of CRH for 1 hour at 37° C. Plates were then washed and incubated with diluted anti-CRH antibody (Ab) at 15 μg/ml (100 nM, 10 diluted, 8 points) for 1 hour at 37° C. Subsequently, plates were washed and incubated with HRP-conjugated goat anti-human IgG (H+L) antibody (Jackson, Cat: 109-035-088) at 37° C. for 1 hour. 100 μL of 3,3′,5,5′-tetramethylbenzidine (TMB) substrate (Biopanda, Cat: TMB-S-003) was added, and the plates were incubated at room temperature for 15 minutes. 100 μL of ELISA stopping solution (Solarbio, Cat #: C1058) was added to terminate the reaction, and the optical density at 450 nm (OD450 nm) was determined by an ELISA plate reader (Molecular Devices, Spectra max 384 plus).

human UCN1 = biological target: T1, human UCN1; test: Human UCN1 ELISA binding; details: in words
Method: Streptavidin (Thermo, Cat: 21125) was diluted in PBS to a concentration of 2 μg/ml. 100 μl of diluted streptavidin was added per well to ELISA microplates, and the plates were incubated overnight at 4° C. Plates were blocked with ELISA blocking solution (containing 2% w/v BSA, 0.05% (v/v) Tween-20, pH 7.4 PBS buffer) at 37° C. for 1 hour, and then incubated with 0.5 μg/mL CRH (NT biotin), 0.5 μg/mL CRH (CT biotin), 1 μg/mL human UCN1 (NT biotin), or 1 μg/mL human UCN1 (CT biotin) for 1 hour at 37° C. Plates were then washed and incubated with diluted anti-CRH antibody (Ab) at 15 μg/ml (100 nM, 10 diluted, 8 points) for 1 hour at 37° C. Subsequently, plates were washed and incubated with HRP-conjugated goat anti-human IgG (H+L) antibody (Jackson, Cat: 109-035-088) at 37° C. for 1 hour. […] 100 μL of ELISA stopping solution (Solarbio, Cat #: C1058) was added to terminate the reaction, and the optical density at 450 nm (OD450 nm) was determined by an ELISA plate reader (Molecular Devices, Spectra max 384 plus).
Streptavidin (Thermo, Cat: 21125) was diluted in PBS with a concentration of 2 μg/mL. […] 100 μL of ELISA stopping solution (Solarbio, Cat #: C1058) was then added to terminate the reaction, and the OD450 nm was determined by an ELISA plate reader (Molecular Devices, Spectra max 384 plus).

Molecule | efficacy in reducing plasma ACTH and corticosterone levels versus SSR125543A at 30 mg/kg [1] | EC50 ([2]; central plus C-terminal region CRH peptide, NT-biotin (SEQ ID NO: 483), read-out: ELISA EC50 C-Ter-CRH (NT-Bion)) | EC50 ([2]; central region CRH peptide, CT-biotin (SEQ ID NO: 485), read-out: ELISA EC50 Central-CRH (CT-Bion)) | EC50 ([2]; central region CRH peptide, NT-biotin (SEQ ID NO: 484), read-out: ELISA EC50 Central-CRH (NT-Bion)) | binding to human UCN1 peptides in ELISA (human UCN1)
B1 | more efficacious |  |  |  | 
B2 |  | > 100 nM | > 100 nM | > 100 nM | except for PR302334-26, bound to human UCN1
